Experimental data as given in article PMC10491584, “Structural convergence endows nuclear transport receptor Kap114p with a transcriptional repressor function toward TATA-binding protein” (Nature Communications, 2023).
Where a chain is given by its changes, count along the chain named.

Legend:
Kap114pΔ(Y939) = target: T1, Kap114pΔ(Y939) (S. cerevisiae, UniProt P53067 1-1004, ΔY939); assay: ITC; MicroCal iTC200, 25 °C, 20 mM HEPES pH 7.4, 150 mM NaCl; high concentration: 50 µM wild type or mutant Kap114p in the sample cell, 500 µM wild type or mutant yTBPC in the syringe; triplicate; conditions: both partners purified
T1 construct: Kap114p, S. cerevisiae, full length with residue Y939 deleted; also called GST-Kap114p (Δ939); source: E. coli Rosetta, purified (GST resin, MonoQ, Superdex 200)
T1 sequence (looked up): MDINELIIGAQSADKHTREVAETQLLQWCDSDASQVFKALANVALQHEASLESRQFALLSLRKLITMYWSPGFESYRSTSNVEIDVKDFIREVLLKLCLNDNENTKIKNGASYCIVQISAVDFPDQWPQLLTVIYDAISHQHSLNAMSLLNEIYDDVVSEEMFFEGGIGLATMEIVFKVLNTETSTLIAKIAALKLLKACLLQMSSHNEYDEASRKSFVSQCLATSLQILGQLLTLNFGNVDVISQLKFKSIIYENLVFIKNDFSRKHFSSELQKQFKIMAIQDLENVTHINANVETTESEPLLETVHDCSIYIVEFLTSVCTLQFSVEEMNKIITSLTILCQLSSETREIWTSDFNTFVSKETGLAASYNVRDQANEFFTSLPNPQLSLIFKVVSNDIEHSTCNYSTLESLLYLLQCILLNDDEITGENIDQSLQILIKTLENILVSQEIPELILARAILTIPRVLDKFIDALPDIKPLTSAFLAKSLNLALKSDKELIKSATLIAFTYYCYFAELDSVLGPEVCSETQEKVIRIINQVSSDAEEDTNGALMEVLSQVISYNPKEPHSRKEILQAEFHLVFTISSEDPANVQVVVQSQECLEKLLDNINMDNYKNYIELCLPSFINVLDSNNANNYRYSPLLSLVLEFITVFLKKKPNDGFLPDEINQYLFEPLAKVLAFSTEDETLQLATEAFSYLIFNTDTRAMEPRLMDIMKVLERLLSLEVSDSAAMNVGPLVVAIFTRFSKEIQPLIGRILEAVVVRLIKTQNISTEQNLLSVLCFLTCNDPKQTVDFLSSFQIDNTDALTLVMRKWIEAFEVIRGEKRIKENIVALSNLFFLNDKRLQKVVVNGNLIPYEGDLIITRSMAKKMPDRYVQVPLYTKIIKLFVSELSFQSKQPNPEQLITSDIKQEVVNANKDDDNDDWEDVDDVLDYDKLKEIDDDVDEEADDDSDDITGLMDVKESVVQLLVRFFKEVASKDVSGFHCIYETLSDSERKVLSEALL

Kap114pΔ(Y933) = target: T2, Kap114pΔ(Y933) (S. cerevisiae, UniProt P53067 1-1004, ΔY933); assay: as above; conditions: both partners purified
T2 construct: Kap114p, S. cerevisiae, full length with residue Y933 deleted; also called GST-Kap114p (Δ933); source: E. coli Rosetta, purified (GST resin, MonoQ, Superdex 200)
T2 sequence (looked up): T1 sequence (looked up) with Y933D, D934K, K935L, L936K, K937E, E938Y

B1: yTBP^C wild type (core domain of yeast TATA-box binding protein, a.a. 61-240) (domain or fragment, S. cerevisiae, UniProt P13393 61-240, looked up)
chain: SGIVPTLQNIVATVTLGCRLDLKTVALHARNAEYNPKRFAAVIMRIREPKTTALIFASGKMVVTGAKSEDDSKLASRKYARIIQKIGFAAKFTDFKIQNIVGSCDVKFPIRLEGLAFSHGTFSSYEPELFPGLIYRMVKPKIVLLIFVSGKIVLTGAKQREEIYQAFEAIYPVLSEFRKM
notes: modified pET28a, 6xHis tag followed by a PreScission site; also called yTBPC WT; His-yTBP (61-240); source: E. coli Rosetta, purified (Ni-NTA, HiTrap SP, Superdex 75); not shown: His6, N-terminal, cleaved
- Kd (Kap114pΔ(Y939)): 37.1 nM
- Kd (Kap114pΔ(Y933)): 7.7 nM
